Measured values taken from patent US20190218308A1 (INNATE PHARMA, published 2019).

T1: CD39 mutant 5 (human, UniProt P49961 1-510)
T1 construct: Expressed on Hek-293T cells; also called M5
T1 chain: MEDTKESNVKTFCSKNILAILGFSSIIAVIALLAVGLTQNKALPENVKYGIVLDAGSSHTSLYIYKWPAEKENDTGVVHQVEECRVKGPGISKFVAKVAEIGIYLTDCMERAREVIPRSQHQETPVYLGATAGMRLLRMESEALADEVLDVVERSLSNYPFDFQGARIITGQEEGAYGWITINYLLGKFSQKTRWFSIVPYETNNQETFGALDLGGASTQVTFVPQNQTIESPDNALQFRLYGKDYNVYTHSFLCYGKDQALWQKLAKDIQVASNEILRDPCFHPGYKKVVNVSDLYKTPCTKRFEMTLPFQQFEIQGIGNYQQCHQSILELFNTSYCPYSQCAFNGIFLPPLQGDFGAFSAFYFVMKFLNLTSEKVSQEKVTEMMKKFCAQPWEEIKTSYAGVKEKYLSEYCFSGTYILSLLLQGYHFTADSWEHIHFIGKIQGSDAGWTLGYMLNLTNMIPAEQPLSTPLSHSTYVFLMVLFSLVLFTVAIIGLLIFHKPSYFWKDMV

T2: CD39 mutant 19 (human, UniProt P49961 1-510)
T2 construct: Expressed on Hek-293T cells; also called M19
T2 chain: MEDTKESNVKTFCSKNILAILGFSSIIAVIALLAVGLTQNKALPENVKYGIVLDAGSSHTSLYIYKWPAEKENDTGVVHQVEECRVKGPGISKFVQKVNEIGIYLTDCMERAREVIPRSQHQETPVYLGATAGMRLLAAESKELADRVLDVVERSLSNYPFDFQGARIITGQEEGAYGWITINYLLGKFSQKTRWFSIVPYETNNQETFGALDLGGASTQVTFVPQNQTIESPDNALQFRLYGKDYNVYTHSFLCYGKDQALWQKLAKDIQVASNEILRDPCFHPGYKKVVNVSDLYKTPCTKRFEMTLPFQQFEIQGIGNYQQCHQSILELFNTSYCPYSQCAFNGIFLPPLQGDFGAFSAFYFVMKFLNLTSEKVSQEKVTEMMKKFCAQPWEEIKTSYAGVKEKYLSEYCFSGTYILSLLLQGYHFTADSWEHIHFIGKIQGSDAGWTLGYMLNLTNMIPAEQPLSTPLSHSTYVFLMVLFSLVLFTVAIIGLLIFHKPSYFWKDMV

T3: CD39 mutant 15 (human, UniProt P49961 1-510)
T3 construct: Expressed on Hek-293T cells; also called M15
T3 chain: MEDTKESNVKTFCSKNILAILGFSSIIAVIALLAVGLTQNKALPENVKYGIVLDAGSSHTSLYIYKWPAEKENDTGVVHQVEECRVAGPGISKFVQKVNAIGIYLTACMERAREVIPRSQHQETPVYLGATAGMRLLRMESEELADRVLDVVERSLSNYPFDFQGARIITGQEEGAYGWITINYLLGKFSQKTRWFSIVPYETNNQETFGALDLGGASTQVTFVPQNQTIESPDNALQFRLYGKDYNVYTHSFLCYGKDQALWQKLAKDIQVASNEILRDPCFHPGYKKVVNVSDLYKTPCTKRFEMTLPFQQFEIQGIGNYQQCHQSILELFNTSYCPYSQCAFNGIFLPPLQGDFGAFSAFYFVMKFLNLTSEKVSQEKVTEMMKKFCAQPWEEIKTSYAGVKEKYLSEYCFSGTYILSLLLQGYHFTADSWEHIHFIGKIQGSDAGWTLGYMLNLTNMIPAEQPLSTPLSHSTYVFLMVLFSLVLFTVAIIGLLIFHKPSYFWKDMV

T4: CD39 mutant 11 (human, UniProt P49961 1-510)
T4 construct: Expressed on Hek-293T cells
T4 sequence: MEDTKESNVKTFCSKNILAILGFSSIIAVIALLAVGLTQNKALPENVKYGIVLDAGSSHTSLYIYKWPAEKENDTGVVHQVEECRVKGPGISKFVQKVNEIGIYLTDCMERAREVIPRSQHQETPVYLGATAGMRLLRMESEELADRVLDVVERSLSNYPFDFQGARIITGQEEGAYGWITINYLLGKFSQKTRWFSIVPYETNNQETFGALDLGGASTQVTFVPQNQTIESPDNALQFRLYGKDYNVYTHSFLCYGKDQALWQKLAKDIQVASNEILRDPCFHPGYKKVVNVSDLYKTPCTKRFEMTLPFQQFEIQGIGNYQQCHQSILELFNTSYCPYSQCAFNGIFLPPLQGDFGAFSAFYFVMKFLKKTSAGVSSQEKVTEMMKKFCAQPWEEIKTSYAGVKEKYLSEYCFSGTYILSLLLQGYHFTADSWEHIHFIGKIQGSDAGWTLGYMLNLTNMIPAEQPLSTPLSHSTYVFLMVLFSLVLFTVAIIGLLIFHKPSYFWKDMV


Key:
CD39 mutant 5 [1] = biological target: T1, CD39 mutant 5; experiment: flow cytometry, Hek-293T cells transfected with CD39 mutant 5 (panel M5), Comp-Alexa Fluor 647-A
Description: (§1) Mutants were transfected in Hek-293T cells, as shown in the table 1, using numbering of SEQ ID NO: 2. […] Mutant 19 includes substitutions at residues R138, M139 and E142.
(§2) Mutants were transfected in Hek-293T cells, as shown in the table 1, using numbering of SEQ ID NO: 2. Dose-ranges of test antibodies (10-2.5-0.625-0.1563-0.0391-0.0098-0.0024-0.0006 μg/ml) are tested on the 20 generated mutants by flow cytometry.

CD39 mutant 19 [2] = biological target: T2, CD39 mutant 19; experiment: flow cytometry, Hek-293T cells transfected with CD39 mutant 19 (panel M19), Comp-Alexa Fluor 647-A
CD39 mutant 15 [3] = biological target: T3, CD39 mutant 15; experiment: flow cytometry, Hek-293T cells transfected with CD39 mutant 15 (panel M15); antibody concentration not shown
CD39 mutant 15 [4] = biological target: T3, CD39 mutant 15; experiment: flow cytometry, Hek-293T cells transfected with CD39 mutant 15 (panel M15), table under the panel; unstained (US) 8,98; antibody concentration not shown
Description: as §1, §2

CD39 mutant 5 [5] = biological target: T1, CD39 mutant 5; experiment: flow cytometry, Hek-293T cells transfected with CD39 mutant 5 (panel M5); antibody concentration not shown
CD39 mutant 19 [6] = biological target: T2, CD39 mutant 19; experiment: flow cytometry, Hek-293T cells transfected with CD39 mutant 19 (panel M19); antibody concentration not shown
Description: as §1, §2

CD39 mutant 5 [7] = biological target: T1, CD39 mutant 5; experiment: flow cytometry, Hek-293T cells expressing mutant 5
CD39 mutant 11 = biological target: T4, CD39 mutant 11; experiment: flow cytometry, Hek-293T cells expressing mutant 11
CD39 mutant 15 [8] = biological target: T3, CD39 mutant 15; experiment: flow cytometry, Hek-293T cells expressing mutant 15
CD39 mutant 19 [9] = biological target: T2, CD39 mutant 19; experiment: flow cytometry, Hek-293T cells expressing mutant 19

Row | binding result (CD39 mutant 5 [1]) | binding result (CD39 mutant 19 [2]) | binding result (CD39 mutant 15 [3]) | Median : Comp-Alexa Fluor 647-A (CD39 mutant 15 [4]) | binding result (CD39 mutant 5 [5]) | binding result (CD39 mutant 19 [6]) | binding result (CD39 mutant 5 [7]) | binding result (CD39 mutant 15 [8]) | binding result (CD39 mutant 19 [9]) | Binder | binding result (CD39 mutant 11)
1 | binds | binds | no binding | 35.9 | – | – | – | – | – | antibody I-396 (antibody, V domains shown, Hybridoma antibody purified with protein A) VH: EVQLQQSGAELVKPGASVKLSCIVSGFNIKDTYINWVKQRPEQGLEWIGRIDPANGNTKYDPKFQGKATMTSDTSSNTAYLHLSSLTSDDSAVYYCARWGYDDEEADYFDSWGQGTTLTVSS VL: not shown | –
2 | – | – | – | 5750 | no binding | no binding | – | – | – | antibody I-395 (antibody, V domains shown, Hybridoma antibody purified with protein A) VH: EVQLQQSGPELVKPGASVRMSCKASGYTFTDYNMHWVKKNHGKGLEWIGYINPNNGGTTYNQKFKGKATLTVNTSSKTAYMELRSLTSEDSAVYYCTRGGTRFASWGQGTLVTVSA VL: not shown | –
3 | – | – | – | – | – | – | binds | binds | binds | antibody I-399 (antibody, V domains shown, Hybridoma antibody purified with protein A) VH: PVQLQQPGAEVVMPGASVKLSCKASGYTFTSFWMNWMRQRPGQGLEWIGEIDPSDFYTNSNQRFKGKATLTVDKSSSTAYMQLSSLTSEDSAVYFCARGDFGWYFDVWGTGTSVTVSS VL: EIVLTQSPTTMTSSPGEKITFTCSASSSINSNYLHWYQQKPGFSPKLLIYRTSNLASGVPTRFSGSGSGTSYSLTIGTMEAEDVATYYCQQGSSLPRTFGGGTKLEIK | no binding (tested: dose range up to 10 µg/ml)
